{"source": "paper doi:10.1101/2022.08.17.504349", "biological_target": "RGA5-HMA5 labeled with NT-647 (MST) (rice) (UniProt F7J0N2)", "experiment": "MST"}
{"substance": "AVR-PikD, recombinant (MST and HDX-MS) (natural protein)", "values": [{"measurement": "Kd", "result": 12, "unit": "µM"}]}
